Laboratory results as given in paper PMC11349179, “Comparative analysis of the LARP1 C-terminal DM15 region through Coelomate evolution” (PLOS ONE, 2024).

Assays:
DrDM15 (zebrafish) = DrDM15 (zebrafish) (UniProt F1R0U5); assay: EMSA; settings: 5' m7G cap (Vaccinia capping), EMSA: 20 mM Tris-HCl pH 8, 150 mM NaCl, 10% glycerol, 1 mM DTT, 0.5 ug tRNA, 1 ug BSA, pM RNA (95 C, snap cooled), native 7% PAGE, 0.5X TBE
HsDM15 [1] = target: T1, HsDM15 (Homo sapiens, UniProt Q6PKG0); assay: differential scanning fluorimetry (SYPRO Orange); type: binding; settings: 5 uM protein, 500 uM ligand; 50 mM Tris-HCl pH 8, 100 mM NaCl, 0.6 mM DTT, 10% glycerol
T1 construct: gene LARP1; C-terminal DM15 region; E. coli BL21(DE3); His6-MBP tag removed with TEV protease; monomer; residues 796-941 used in simulation only

DmDM15 [2] = target: T2, DmDM15 (Drosophila melanogaster, UniProt Q9VAW5); assay: differential scanning fluorimetry (SYPRO Orange); type: binding; settings: 5 uM protein, 500 uM ligand; 50 mM Tris-HCl pH 8, 100 mM NaCl, 0.6 mM DTT, 10% glycerol
T2 construct: gene larp; C-terminal DM15 region; E. coli BL21(DE3); His6-MBP tag removed with TEV protease; monomer
T2 sequence (Q9VAW5 1330-1481): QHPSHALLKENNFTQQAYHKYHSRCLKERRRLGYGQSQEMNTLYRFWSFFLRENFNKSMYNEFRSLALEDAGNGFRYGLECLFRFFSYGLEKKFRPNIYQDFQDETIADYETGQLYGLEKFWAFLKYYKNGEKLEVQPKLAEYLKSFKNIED

DrDM15 = target: T3, DrDM15 (Danio rerio, UniProt A0A8M9P457); assay: differential scanning fluorimetry (SYPRO Orange); type: binding; settings: 5 uM protein, 500 uM ligand; 50 mM Tris-HCl pH 8, 100 mM NaCl, 0.6 mM DTT, 10% glycerol
T3 construct: gene larp1; C-terminal DM15 region, residues 754-904; E. coli BL21(DE3); His6-MBP tag removed with TEV protease; Gly6 linker after TEV site; monomer
T3 sequence (A0A8M9P457 778-928): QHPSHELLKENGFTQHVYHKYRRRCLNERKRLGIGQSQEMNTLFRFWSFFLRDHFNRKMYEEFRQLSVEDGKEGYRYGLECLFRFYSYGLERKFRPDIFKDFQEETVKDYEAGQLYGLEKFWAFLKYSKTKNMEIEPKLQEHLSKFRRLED

DmDM15 [3] = target: DmDM15 (fruit fly, UniProt A0A0B4K7Y7 1330-1481); assay: EMSA; EMSA: 20 mM Tris-HCl pH 8, 150 mM NaCl, 10% glycerol, 1 mM DTT, 0.5 ug tRNA, 1 ug BSA, pM RNA (95 C, snap cooled), 0.5-1 h on ice; native 7% PAGE, 0.5X TBE; settings: protein: recombinant, tags: His6-MBP removed by TEV, label: 32P in cap
Chain of DmDM15 (fruit fly, UniProt A0A0B4K7Y7 1330-1481) (A0A0B4K7Y7 entry or part of it): as the sequence (Q9VAW5 1330-1481) above

HsDM15 [4] = target: T4, HsDM15 (Homo sapiens, UniProt Q6PKG0-3 796-946); assay: as above; settings: protein: recombinant, tags: His6-MBP removed by TEV, label: 32P in cap
HsDM15 [5] = target: T4, HsDM15; assay: EMSA; stated only as picomolar affinity; EMSA: 20 mM Tris-HCl pH 8, 150 mM NaCl, 10% glycerol, 1 mM DTT, 0.5 ug tRNA, 1 ug BSA, pM RNA (95 C, snap cooled), 0.5-1 h on ice; native 7% PAGE, 0.5X TBE; settings: protein: recombinant; tags: His6-MBP removed by TEV; label: 32P in cap
[6] = 5' end paired in one predicted fold

“CCUCUUUUCCGUGGCGCCUCGGAGGCGUUCAGCUGCUUCAAG [HsRPS6 42-mer, capped]” gave a Kd (DrDM15 (zebrafish); 0.5-1 h on …) of 10000 pM.

With `C[n+]1cn([C@@H]2O[C@H](COP(=O)(O)OP(=O)(O)OP(=O)(O)O)[C@@H](O)[C@H]2O)c2nc(N)[nH]c(=O)c21` [m^7GTP] the Tm (HsDM15 [1]) was “thermal stabilization of all three orthologs in the presence of a cap analog (Fig 3D)”, the Tm (DmDM15 [2]) was “thermal stabilization of all three orthologs in the presence of a cap analog (Fig 3D)” and the Tm (DrDM15) was “thermal stabilization of all three orthologs in the presence of a cap analog (Fig 3D)”.

With “CCUUCUCCCCGGCGGUUAGUGCUGAGAGUGCGGAGUGUGUGC [HsPABPC1 42-mer, capped]” the Kd (DrDM15 (zebrafish); 0.5-1 h on …) was 97000 pM.

“CCUUCUCCCCGCUUAUCUCUUUGAGAUAAAUGCAUAUUUUUU [HsPABPC1_Stem, capped]” gave a Kd (DrDM15 (zebrafish); 0.5-1 h on …) of 6900 pM.

With “CUUUUGCCAUUGUCAGCCGACGAAGUGCUUUAACCCAAACUA [DmRPL30 42-mer, capped]” the Kd (DrDM15 (zebrafish); stated only as picomolar affinity, 0.5-1 h on ice) was < 1000 pM.

With “CCUCUUUUCCGCUUAUCUCUUUGAGAUAAAUGCAUAUUUUUU [HsRPS6_Stem, capped]” the Kd (DrDM15 (zebrafish); 0.5-1 h on …) was 7900 pM.

For CCUCUUUUCCGCUUAUCUCUUUGAGAUAAAUGCAUAUUUUUU (structured_RNA, 5' m7G cap (Vaccinia capping)) [HsRPS6_Stem, capped], the Kd (DmDM15 [3]; hairpin (predicted)) was 29 ± 0.06 nM and the Kd (HsDM15 [4]; hairpin (predicted)) was 1.9 ± 0.05 nM.

CCUUCUCCCCGCUUAUCUCUUUGAGAUAAAUGCAUAUUUUUU (structured_RNA, 5' m7G cap (Vaccinia capping)) [HsPABPC1_Stem, capped] gave a Kd (DmDM15 [3]; hairpin (predicted)) of 6.1 ± 0.03 nM and a Kd (HsDM15 [4]; hairpin (predicted)) of 1.5 ± 0.04 nM.

CCUUCUCCCCGGCGGUUAGUGCUGAGAGUGCGGAGUGUGUGC (structured_RNA, 5' m7G cap (Vaccinia capping)) [HsPABPC1 42-mer, capped] gave a Kd (DmDM15 [3]; [6]) of 140 ± 0.02 nM and a Kd (HsDM15 [4]; [6]) of 18 ± 0.06 nM.

For CUUUUGCCAUUGUCAGCCGACGAAGUGCUUUAACCCAAACUA (ssRNA, 5' m7G cap (Vaccinia capping)) [DmRPL30 42-mer, capped], the Kd (HsDM15 [5]) was < 1 nM.

CCUCUUUUCCGUGGCGCCUCGGAGGCGUUCAGCUGCUUCAAG (structured_RNA, 5' m7G cap (Vaccinia capping)) [HsRPS6 42-mer, capped] showed a Kd (DmDM15 [3]; hairpin (predicted)) of 58 ± 0.02 nM and a Kd (HsDM15 [4]; hairpin (predicted)) of 3.9 ± 0.2 nM.
